{"source": "paper PMC11771145", "about": "(Nature, 2024)", "proteins": {"B1": {"name": "Vitiosangium bGSDM, engineered with a thrombin site and cleaved by thrombin (active N-terminal pore-forming domain) (domain or fragment, Vitiosangium sp. GDMCC 1.1324)", "chain": "SGLCSDPAITYLKRLGYNVVRLPREGIQPLHLLGQQRGTVEYLGSLEKLITQPPSEPPAITRDQAAAGINGQKTENLSFSIGINILKSVLAQFGAGAGIEAQYNQARKVRFEFSNVLADSVEPLAVGQFLKMAEVDADNPVLKQYVLGNGRLYVITQVIKSNEFTVAAEKSGGGSIQLDVPEIQKVVGGKLKVEASVSSQSTVTYKGEKQLVFGFKCFEIGVKNGEITLFASQLVPR"}}, "target": "the molecule itself", "assay": "cryo-EM, 2D class averages"}
{"protein": "B1", "values": [{"measurement": "stoichiometry N", "value": "48 to 54", "unit": "protomers"}]}
